Experiment [1] concerns the target CD5 on human ACH2 immortalized T cells (human) (UniProt P06127). Put plainly: cell-based or functional assay.
The target of experiment [2] is CD5 on murine T cells (mouse) (UniProt P13379). Put plainly: cell-based or functional assay.

Experimental findings from US20230203538A1 are described below.

Sequence of UniProt P13379 (P13379 24-494 limits assumed): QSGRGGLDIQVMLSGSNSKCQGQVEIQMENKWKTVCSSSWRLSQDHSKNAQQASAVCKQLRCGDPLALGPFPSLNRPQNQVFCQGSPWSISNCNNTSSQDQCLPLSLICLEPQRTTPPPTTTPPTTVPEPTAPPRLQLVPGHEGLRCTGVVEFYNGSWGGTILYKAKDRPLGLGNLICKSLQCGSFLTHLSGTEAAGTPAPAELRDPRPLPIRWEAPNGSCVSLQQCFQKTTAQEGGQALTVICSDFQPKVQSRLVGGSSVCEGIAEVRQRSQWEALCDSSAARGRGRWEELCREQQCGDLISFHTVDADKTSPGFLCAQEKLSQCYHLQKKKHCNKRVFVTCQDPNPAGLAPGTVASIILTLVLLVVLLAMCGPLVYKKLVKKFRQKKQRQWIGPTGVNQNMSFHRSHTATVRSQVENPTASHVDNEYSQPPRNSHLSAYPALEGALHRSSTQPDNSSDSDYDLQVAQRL
Sequence of UniProt P06127 (P06127 25-495 limits assumed): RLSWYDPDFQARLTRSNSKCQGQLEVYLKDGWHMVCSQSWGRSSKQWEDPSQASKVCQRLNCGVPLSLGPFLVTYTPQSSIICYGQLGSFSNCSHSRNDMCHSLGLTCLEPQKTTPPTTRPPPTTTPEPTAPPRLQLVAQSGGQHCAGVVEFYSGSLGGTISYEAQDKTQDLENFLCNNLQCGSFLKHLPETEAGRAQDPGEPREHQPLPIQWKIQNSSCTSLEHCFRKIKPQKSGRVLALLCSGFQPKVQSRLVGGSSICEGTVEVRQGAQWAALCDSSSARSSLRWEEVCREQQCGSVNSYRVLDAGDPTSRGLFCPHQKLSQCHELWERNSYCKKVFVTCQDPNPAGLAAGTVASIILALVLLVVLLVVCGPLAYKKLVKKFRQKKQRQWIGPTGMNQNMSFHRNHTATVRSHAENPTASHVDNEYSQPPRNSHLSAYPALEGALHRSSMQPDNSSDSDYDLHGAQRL

On to “mouse anti-human CD5, clone UCHT2 (BioLegend), conjugated to LNP-mRNA (antibody)”, for which the percent gene transfer (GFP) in human ACH2 T cells 24 hours after mixing with CD5/LNP-GFP in experiment [1] was 89 to 93%.

With “control isotype matched IgG conjugated to LNP-mRNA (antibody)”, the percent of murine T cells that received mRNA from IgG/LNP-FAPCAR (flow cytometry) in experiment [2] was found to be 7%.

In experiment [2], “purified rat anti-mouse CD5, clone 53-7.3 (BioLegend), conjugated to LNP-mRNA (antibody)” yielded a percent of murine T cells expressing FAPCAR 48 hours after incubation with CD5/LNP-FAPCAR (flow cytometry) of 83% and a percent of murine T cells expressing GFP 48 hours after incubation with CD5/LNP-GFP (flow cytometry) of 78%.
